We go through four substances from patent US20090311267A1.

The target of assay [1] is baboon platelet GPIb (on baboon platelets) (baboon (Papio ursinus)). In words: cell-based or functional assay.
The target is the same in assay [2]. In words: 125I-labelled fragment on baboon platelets in plasma.
The target is the same in assay [3]. In words: GPIb occupancy on baboon platelets, 30 minutes after bolus of 2 mg/kg.
Assay [4] shares this target. In words: GPIb occupancy on baboon platelets, 30 minutes after bolus of 4 mg/kg.
For assay [5] the target is unchanged. Kind of assay: GPIb occupancy on baboon platelets, 60 minutes after bolus of 2 mg/kg.
Assay [6] has the same target. In words: GPIb occupancy on baboon platelets, 60 minutes after bolus of 4 mg/kg.
Assay [7] shares this target. Kind of assay: GPIb occupancy on baboon platelets, 150 minutes after bolus of 2 mg/kg.
Assay [8] shares this target. In words: GPIb occupancy on baboon platelets, 150 minutes after bolus of 4 mg/kg.
Assay [9] shares this target. Kind of assay: GPIb occupancy on baboon platelets, 300 minutes after bolus of 2 mg/kg.
Assay [10] has the same target. In words: GPIb occupancy on baboon platelets, 300 minutes after bolus of 4 mg/kg.
For assay [11] the target is unchanged. Kind of assay: GPIb occupancy on baboon platelets, 30 minutes after bolus of 600 µg/kg.
Assay [12] shares this target. Kind of assay: GPIb occupancy on baboon platelets, 60 minutes after bolus of 600 µg/kg.
For assay [13] the target is unchanged. Kind of assay: GPIb occupancy on baboon platelets, 150 minutes after bolus of 600 µg/kg.
Assay [14] has the same target. In words: GPIb occupancy on baboon platelets, 300 minutes after bolus of 600 µg/kg.
In assay [15] the target is purified human von Willebrand factor (human) (UniProt P04275). In words: cell-based or functional assay.
The target is the same in assay [16]. Kind of assay: ELISA: inhibition of plasma or purified vWF binding to coated human collagen type I.
The target in assay [17] is mouse GPIIb/IIIa (on mouse platelets) (mouse) (UniProt Q9QUM0). In words: receptor occupancy on platelets of mice after 10 µg JON/A F(ab)2 i.v.
Assay [18] has the same target. In words: receptor occupancy on platelets of mice after 20 µg JON/A F(ab)2 i.v.
For assay [19] the target is unchanged. In words: receptor occupancy on platelets of mice after 100 µg JON/A F(ab)2 i.v.
Assay [20] addresses human collagen type I (human) (UniProt P02452). Kind of assay: ex vivo ELISA, baboon plasma vWF on human collagen type I, % of pre-sample; 82D6A3 300 µg/kg, 24 h.
Assay [21] shares this target. Kind of assay: ex vivo ELISA, baboon plasma vWF on human collagen type I, % of pre-sample; 82D6A3 300 µg/kg, 48 h.
Assay [22] shares this target. In words: ex vivo ELISA, baboon plasma vWF on human collagen type I, % of pre-sample; 82D6A3 600 µg/kg, 24 h.
Assay [23] shares this target. Kind of assay: ex vivo ELISA, baboon plasma vWF on human collagen type I, % of pre-sample; 82D6A3 100 µg/kg, 30 min.
For assay [24] the target is unchanged. In words: ex vivo ELISA, baboon plasma vWF on human collagen type I, % of pre-sample; 82D6A3 100 µg/kg, 60 min.
The target is the same in assay [25]. In words: ex vivo ELISA, baboon plasma vWF on human collagen type I, % of pre-sample; 82D6A3 300 µg/kg, 30 min.
For assay [26] the target is unchanged. Kind of assay: ex vivo ELISA, baboon plasma vWF on human collagen type I, % of pre-sample; 82D6A3 300 µg/kg, 60 min.
For assay [27] the target is unchanged. In words: ex vivo ELISA, baboon plasma vWF on human collagen type I, % of pre-sample; 82D6A3 600 µg/kg, 30 min.
The target is the same in assay [28]. In words: ex vivo ELISA, baboon plasma vWF on human collagen type I, % of pre-sample; 82D6A3 600 µg/kg, 60 min.
For assay [29] the target is unchanged. In words: ex vivo ELISA, baboon plasma vWF on human collagen type I, % of pre-sample; 82D6A3 300 µg/kg, 150 min.
The target is the same in assay [30]. In words: ex vivo ELISA, baboon plasma vWF on human collagen type I, % of pre-sample; 82D6A3 300 µg/kg, 300 min.
Assay [31] shares this target. In words: ex vivo ELISA, baboon plasma vWF on human collagen type I, % of pre-sample; 82D6A3 600 µg/kg, 150 min.
The target is the same in assay [32]. Kind of assay: ex vivo ELISA, baboon plasma vWF on human collagen type I, % of pre-sample; 82D6A3 600 µg/kg, 300 min.
The target is the same in assay [33]. Kind of assay: ex vivo ELISA, baboon plasma vWF on human collagen type I, % of pre-sample; 82D6A3 100 µg/kg group, 0 min.
The target is the same in assay [34]. Kind of assay: ex vivo ELISA, baboon plasma vWF on human collagen type I, % of pre-sample; 82D6A3 300 µg/kg group, 0 min.
For assay [35] the target is unchanged. In words: ex vivo ELISA, baboon plasma vWF on human collagen type I, % of pre-sample; 82D6A3 600 µg/kg group, 0 min.

Sequence of human collagen type I (human) (P02452 162-1218, chain 1 of 2): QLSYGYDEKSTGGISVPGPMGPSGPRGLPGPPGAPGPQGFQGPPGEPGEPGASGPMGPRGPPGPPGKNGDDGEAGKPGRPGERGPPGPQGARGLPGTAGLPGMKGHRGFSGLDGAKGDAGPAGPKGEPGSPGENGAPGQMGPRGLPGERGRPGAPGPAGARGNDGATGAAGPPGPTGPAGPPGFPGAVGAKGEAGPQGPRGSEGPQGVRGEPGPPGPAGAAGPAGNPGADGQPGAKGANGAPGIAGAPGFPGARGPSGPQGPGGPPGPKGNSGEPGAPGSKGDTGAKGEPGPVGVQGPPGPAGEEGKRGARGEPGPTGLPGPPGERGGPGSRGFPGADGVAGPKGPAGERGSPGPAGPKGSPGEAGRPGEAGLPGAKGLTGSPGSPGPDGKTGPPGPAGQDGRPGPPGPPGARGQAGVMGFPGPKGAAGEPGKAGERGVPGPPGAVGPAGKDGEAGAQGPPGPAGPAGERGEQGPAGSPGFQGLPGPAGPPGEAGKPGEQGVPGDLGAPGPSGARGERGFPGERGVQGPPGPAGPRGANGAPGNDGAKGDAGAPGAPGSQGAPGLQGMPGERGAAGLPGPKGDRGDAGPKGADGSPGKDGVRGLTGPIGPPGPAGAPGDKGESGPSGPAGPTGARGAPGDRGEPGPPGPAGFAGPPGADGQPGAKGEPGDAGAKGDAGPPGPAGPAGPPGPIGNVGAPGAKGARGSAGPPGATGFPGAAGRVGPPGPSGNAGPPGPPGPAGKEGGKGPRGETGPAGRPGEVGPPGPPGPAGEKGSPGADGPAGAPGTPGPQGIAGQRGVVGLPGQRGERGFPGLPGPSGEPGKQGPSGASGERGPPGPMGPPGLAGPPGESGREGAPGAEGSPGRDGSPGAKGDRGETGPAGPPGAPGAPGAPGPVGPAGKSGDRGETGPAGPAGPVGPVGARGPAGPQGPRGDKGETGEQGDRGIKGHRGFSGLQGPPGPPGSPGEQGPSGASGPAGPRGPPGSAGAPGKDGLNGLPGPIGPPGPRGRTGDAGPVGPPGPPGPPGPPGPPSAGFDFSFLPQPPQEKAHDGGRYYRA
Sequence of human collagen type I (human) (P08123 80-1119, chain 2 of 2, further chain): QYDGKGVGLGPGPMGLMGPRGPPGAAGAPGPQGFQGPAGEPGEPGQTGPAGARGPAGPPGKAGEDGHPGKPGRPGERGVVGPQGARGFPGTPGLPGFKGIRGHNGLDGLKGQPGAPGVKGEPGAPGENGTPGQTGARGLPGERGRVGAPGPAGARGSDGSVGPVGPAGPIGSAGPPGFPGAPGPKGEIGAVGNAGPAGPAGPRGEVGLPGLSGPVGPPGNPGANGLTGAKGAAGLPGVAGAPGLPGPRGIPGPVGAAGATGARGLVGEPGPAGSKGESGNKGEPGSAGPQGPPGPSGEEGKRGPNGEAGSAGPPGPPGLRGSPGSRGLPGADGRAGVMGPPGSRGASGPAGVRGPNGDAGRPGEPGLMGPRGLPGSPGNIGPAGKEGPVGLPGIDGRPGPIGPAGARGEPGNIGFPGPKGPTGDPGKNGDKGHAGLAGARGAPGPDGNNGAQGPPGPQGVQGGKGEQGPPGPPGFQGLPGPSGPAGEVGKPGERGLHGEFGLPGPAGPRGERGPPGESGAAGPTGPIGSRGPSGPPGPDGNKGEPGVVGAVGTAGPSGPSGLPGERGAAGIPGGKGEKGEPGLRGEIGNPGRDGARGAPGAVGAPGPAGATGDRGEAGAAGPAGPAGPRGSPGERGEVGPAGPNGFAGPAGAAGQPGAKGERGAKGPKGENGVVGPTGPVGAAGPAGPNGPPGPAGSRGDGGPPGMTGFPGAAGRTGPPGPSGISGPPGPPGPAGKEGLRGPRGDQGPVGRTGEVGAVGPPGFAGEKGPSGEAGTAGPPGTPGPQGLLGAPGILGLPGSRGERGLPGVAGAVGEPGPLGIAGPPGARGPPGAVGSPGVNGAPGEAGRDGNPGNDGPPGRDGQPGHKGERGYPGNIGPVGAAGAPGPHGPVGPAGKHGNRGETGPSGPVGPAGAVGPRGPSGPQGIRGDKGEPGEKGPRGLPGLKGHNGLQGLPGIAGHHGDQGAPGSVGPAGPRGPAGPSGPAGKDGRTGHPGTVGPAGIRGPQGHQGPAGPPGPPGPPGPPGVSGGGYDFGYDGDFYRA
Sequence of baboon platelet GPIb (on baboon platelets) (baboon (Papio ursinus)) (A0A096 entry or part of it limits assumed, form in doubt): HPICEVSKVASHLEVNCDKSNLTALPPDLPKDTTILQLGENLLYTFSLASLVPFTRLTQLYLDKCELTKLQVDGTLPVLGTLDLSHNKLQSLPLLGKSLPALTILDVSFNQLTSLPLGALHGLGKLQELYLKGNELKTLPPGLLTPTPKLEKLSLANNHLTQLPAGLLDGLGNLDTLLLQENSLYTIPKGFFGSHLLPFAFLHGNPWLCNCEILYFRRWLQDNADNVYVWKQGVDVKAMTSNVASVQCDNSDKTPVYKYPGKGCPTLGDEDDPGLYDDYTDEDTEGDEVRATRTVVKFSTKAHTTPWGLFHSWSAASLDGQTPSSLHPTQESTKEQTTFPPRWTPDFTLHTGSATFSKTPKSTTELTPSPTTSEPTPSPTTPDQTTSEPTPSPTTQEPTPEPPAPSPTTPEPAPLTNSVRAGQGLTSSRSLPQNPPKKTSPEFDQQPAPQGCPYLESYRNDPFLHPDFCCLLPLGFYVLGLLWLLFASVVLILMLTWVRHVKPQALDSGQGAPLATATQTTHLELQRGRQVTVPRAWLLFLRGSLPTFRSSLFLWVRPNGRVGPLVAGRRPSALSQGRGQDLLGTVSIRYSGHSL
Sequence of mouse GPIIb/IIIa (on mouse platelets) (mouse) (Q9QUM0 32-1033, chain 1 of 2): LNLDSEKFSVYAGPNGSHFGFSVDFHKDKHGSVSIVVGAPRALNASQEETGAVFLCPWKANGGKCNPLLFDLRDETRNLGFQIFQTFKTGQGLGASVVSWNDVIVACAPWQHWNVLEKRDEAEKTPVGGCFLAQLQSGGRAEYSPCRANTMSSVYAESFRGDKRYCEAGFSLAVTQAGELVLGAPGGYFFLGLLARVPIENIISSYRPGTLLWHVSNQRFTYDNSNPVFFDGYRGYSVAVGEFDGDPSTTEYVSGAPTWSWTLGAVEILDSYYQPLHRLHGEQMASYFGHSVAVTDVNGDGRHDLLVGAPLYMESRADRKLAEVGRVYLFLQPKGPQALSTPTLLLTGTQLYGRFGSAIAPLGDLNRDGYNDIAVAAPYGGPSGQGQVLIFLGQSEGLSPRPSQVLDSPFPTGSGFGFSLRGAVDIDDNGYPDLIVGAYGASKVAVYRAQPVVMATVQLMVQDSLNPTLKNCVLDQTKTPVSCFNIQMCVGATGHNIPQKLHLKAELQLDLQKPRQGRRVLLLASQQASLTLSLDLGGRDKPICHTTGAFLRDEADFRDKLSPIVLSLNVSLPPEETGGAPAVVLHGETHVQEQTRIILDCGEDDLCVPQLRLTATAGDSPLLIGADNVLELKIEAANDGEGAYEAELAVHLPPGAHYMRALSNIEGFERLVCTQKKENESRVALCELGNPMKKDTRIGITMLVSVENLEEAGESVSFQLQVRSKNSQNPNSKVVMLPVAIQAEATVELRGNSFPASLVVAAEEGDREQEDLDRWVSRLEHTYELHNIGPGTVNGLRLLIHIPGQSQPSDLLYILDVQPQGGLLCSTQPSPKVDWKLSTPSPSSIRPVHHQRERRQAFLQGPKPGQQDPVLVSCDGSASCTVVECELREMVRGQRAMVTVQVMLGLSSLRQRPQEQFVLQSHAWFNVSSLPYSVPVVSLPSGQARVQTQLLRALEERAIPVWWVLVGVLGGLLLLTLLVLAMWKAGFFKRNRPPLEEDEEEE
Sequence of mouse GPIIb/IIIa (on mouse platelets) (mouse) (O54890 26-787, chain 2 of 2, further chain): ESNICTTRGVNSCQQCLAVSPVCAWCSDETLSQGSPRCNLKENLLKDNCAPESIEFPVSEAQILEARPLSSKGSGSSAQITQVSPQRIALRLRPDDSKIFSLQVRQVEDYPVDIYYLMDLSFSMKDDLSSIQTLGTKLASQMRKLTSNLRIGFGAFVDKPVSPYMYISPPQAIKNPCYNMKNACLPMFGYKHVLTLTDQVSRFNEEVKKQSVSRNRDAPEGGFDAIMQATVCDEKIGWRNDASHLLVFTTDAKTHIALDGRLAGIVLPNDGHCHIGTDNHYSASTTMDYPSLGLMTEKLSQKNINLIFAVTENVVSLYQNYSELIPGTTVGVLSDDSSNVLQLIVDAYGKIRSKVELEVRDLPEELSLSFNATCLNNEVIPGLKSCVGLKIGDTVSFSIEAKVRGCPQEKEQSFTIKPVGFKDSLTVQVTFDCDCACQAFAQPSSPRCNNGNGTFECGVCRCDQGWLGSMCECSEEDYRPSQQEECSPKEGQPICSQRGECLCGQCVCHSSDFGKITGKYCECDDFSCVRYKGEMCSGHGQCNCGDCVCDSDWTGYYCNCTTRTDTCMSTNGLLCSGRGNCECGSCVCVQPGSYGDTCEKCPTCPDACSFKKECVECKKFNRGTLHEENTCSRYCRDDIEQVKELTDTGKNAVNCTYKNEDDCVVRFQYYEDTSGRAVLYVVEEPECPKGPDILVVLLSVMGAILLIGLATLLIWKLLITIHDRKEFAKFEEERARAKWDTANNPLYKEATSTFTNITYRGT

Turning to 6B4 Fab fragments, in assay [1], the % inhibition of ex vivo ristocetin-induced (1.5 mg/mL) platelet agglutination; after 160 µg/kg, time 270 min worked out at 8%; the % inhibition of ex vivo ristocetin-induced (1.5 mg/mL) platelet agglutination; after 640 µg/kg, time 270 min was 15%; the % inhibition of ex vivo ristocetin-induced (1.5 mg/mL) platelet agglutination; after 640 µg/kg, time 24 h turned out to be 7%; the % inhibition of ex vivo ristocetin-induced (1.5 mg/mL) platelet agglutination; dose 80 µg/kg, time 90 min came out at 26%. In [1], this substance displayed a % inhibition of ex vivo ristocetin-induced (1.5 mg/mL) platelet agglutination; dose 160 µg/kg, time 150 min of 47%; a % inhibition of ex vivo ristocetin-induced (1.5 mg/mL) platelet agglutination; dose 320 µg/kg, time 90 min of 25%; a % inhibition of ex vivo ristocetin-induced (1.5 mg/mL) platelet agglutination; dose 640 µg/kg, time 150 min of 80%; an IC50 of ristocetin-induced baboon platelet aggregation of 40 nM. Moreover, in assay [1], the ex vivo ristocetin-induced platelet aggregation, % of the response before injection; 600 µg/kg, 60 minutes was found to be 16.8%; the ex vivo ristocetin-induced platelet aggregation, % of the response before injection; 600 µg/kg, 150 minutes was 68.8%; the ex vivo ristocetin-induced platelet aggregation, % of the response before injection; 2 mg/kg, 60 minutes was determined as 5.2%; the ex vivo ristocetin-induced platelet aggregation, % of the response before injection; 2 mg/kg, 150 minutes stood at 19.2%. Also, in assay [1], the ex vivo ristocetin-induced platelet aggregation, % of the response before injection; 4 mg/kg, 60 minutes came out at 2% and the ex vivo ristocetin-induced platelet aggregation, % of the response before injection; 4 mg/kg, 150 minutes came out at 16%. The same substance showed a KD50 (half saturation) in assay [2] of 49.2 nmol/L. Moreover, the receptor occupancy in [3] turned out to be 69.3%. Moreover, in assay [4], the receptor occupancy was determined as 84%. Also, the receptor occupancy in assay [5] was 64.8%. The receptor occupancy in [6] turned out to be 79%. For the same substance, the receptor occupancy in [7] is 43.9%. In [8], this substance gave a receptor occupancy of 45.6%. Further, the receptor occupancy in [9] is 12.9%. The substance further displayed a receptor occupancy in assay [10] of 31.3%. Further, the receptor occupancy in assay [11] stood at 34.5%. In assay [12], this substance registered a receptor occupancy of 28.6%. The same substance had a receptor occupancy in [13] of 17.1%. The receptor occupancy in assay [14] was found to be 6.3%.

For 82D6A3 F(ab) fragment (Fab), the concentration for complete inhibition of platelet deposition on human collagen type I under flow, shear rate 1300 s^-1 in assay [15] was 10 µg/mL. The IC50 in assay [16] stood at 1 µg/mL.

For the substance JON/A F(ab)2 (antibody), the Receptor occupancy, % in [17] is 67.8%; in [18], 78.4%; in [19] it was more than 95%.

In the case of “baboon vWF (in baboon plasma), A0A096N8H2 764-2813”, the collagen binding (%) in [20] stood at 91%; in assay [21] it was 93%; in assay [22], 45%; in assay [23] it was 64%; in assay [24], 69%; in assay [25] it was 4%. Besides, the collagen binding (%) in [26] is 4%; in assay [27] it was 4%; in assay [28], 3.5%; in [29], 4%; in assay [30], 4%; in assay [31], 3.52%. Besides, the collagen binding (%) in assay [32] worked out at 4%; in assay [33], 101%; in assay [34], 101%; in assay [35], 100%.
